# Laboratory results published in patent US20260001928A1 (CORTERIA PHARMACEUTICALS, priority 2022, published 2026).
# *1 amine or outer side, *2 acyl side, *3 side chain or, on linkers, in order; H or OH if unused. Where no end group is shown, it is not given here. Side-chain parts run from the residue outwards. [ ]: non-standard residue; d: D form. The star is where a group is joined. C16 diacid = O=C(O)CCCCCCCCCCCCCCC(=O)*; γGlu = O=C(O)[C@H](CCC(=O)[*:2])N[*:1]; NMeV = CN[C@H](C(=O)O)C(C)C; Api = NC1(C(=O)O)CCNCC1; Pentanoyl = CCCCC(=O)*; Aib = CC(C)(N)C(=O)O
# B1: SEQ ID NO 160 (peptide)
# peptide: [NMeV]LSLD[dV]PIKLK([γGlu-C16 diacid])KILLEQEKQKKQREQAETN[Api]QILAQV-NH2
# modifications: N-terminus assumed
# SMILES: CC[C@H](C)[C@H](NC(=O)[C@H](CCC(N)=O)NC(=O)C1(NC(=O)[C@H](CC(N)=O)NC(=O)[C@@H](NC(=O)[C@H](CCC(=O)O)NC(=O)[C@H](C)NC(=O)[C@H](CCC(N)=O)NC(=O)[C@H](CCC(=O)O)NC(=O)[C@H](CCCNC(=N)N)NC(=O)[C@H](CCC(N)=O)NC(=O)[C@H](CCCCN)NC(=O)[C@H](CCCCN)NC(=O)[C@H](CCC(N)=O)NC(=O)[C@H](CCCCN)NC(=O)[C@H](CCC(=O)O)NC(=O)[C@H](CCC(N)=O)NC(=O)[C@H](CCC(=O)O)NC(=O)[C@H](CC(C)C)NC(=O)[C@H](CC(C)C)NC(=O)[C@@H](NC(=O)[C@H](CCCCN)NC(=O)[C@H](CCCCNC(=O)CC[C@H](NC(=O)CCCCCCCCCCCCCCC(=O)O)C(=O)O)NC(=O)[C@H](CC(C)C)NC(=O)[C@H](CCCCN)NC(=O)[C@@H](NC(=O)[C@@H]2CCCN2C(=O)[C@H](NC(=O)[C@H](CC(=O)O)NC(=O)[C@H](CC(C)C)NC(=O)[C@H](CO)NC(=O)[C@H](CC(C)C)NC(=O)[C@@H](NC)C(C)C)C(C)C)[C@@H](C)CC)[C@@H](C)CC)[C@@H](C)O)CCNCC1)C(=O)N[C@@H](CC(C)C)C(=O)N[C@@H](C)C(=O)N[C@@H](CCC(N)=O)C(=O)N[C@H](C(N)=O)C(C)C
# B2: SEQ ID NO 161 (peptide)
# peptide: Ac-IVLSLD[dV]PIKLK([γGlu-C16 diacid])KILLEQEKQKAQREQAETN[Aib]QILAQV-NH2
# SMILES: CC[C@H](C)[C@H](NC(C)=O)C(=O)N[C@H](C(=O)N[C@@H](CC(C)C)C(=O)N[C@@H](CO)C(=O)N[C@@H](CC(C)C)C(=O)N[C@@H](CC(=O)O)C(=O)N[C@@H](C(=O)N1CCC[C@H]1C(=O)N[C@H](C(=O)N[C@@H](CCCCN)C(=O)N[C@@H](CC(C)C)C(=O)N[C@@H](CCCCNC(=O)CC[C@H](NC(=O)CCCCCCCCCCCCCCC(=O)O)C(=O)O)C(=O)N[C@@H](CCCCN)C(=O)N[C@H](C(=O)N[C@@H](CC(C)C)C(=O)N[C@@H](CC(C)C)C(=O)N[C@@H](CCC(=O)O)C(=O)N[C@@H](CCC(N)=O)C(=O)N[C@@H](CCC(=O)O)C(=O)N[C@@H](CCCCN)C(=O)N[C@@H](CCC(N)=O)C(=O)N[C@@H](CCCCN)C(=O)N[C@@H](C)C(=O)N[C@@H](CCC(N)=O)C(=O)N[C@@H](CCCNC(=N)N)C(=O)N[C@@H](CCC(=O)O)C(=O)N[C@@H](CCC(N)=O)C(=O)N[C@@H](C)C(=O)N[C@@H](CCC(=O)O)C(=O)N[C@H](C(=O)N[C@@H](CC(N)=O)C(=O)NC(C)(C)C(=O)N[C@@H](CCC(N)=O)C(=O)N[C@H](C(=O)N[C@@H](CC(C)C)C(=O)N[C@@H](C)C(=O)N[C@@H](CCC(N)=O)C(=O)N[C@H](C(N)=O)C(C)C)[C@@H](C)CC)[C@@H](C)O)[C@@H](C)CC)[C@@H](C)CC)C(C)C)C(C)C
# B3: SEQ ID NO 163 (peptide)
# peptide: Ac-IVLSLD[dV]PIALK([γGlu-C16 diacid])KILLEQEKQKKQREQAETN[Aib]QILAQV-NH2
# SMILES: CC[C@H](C)[C@H](NC(C)=O)C(=O)N[C@H](C(=O)N[C@@H](CC(C)C)C(=O)N[C@@H](CO)C(=O)N[C@@H](CC(C)C)C(=O)N[C@@H](CC(=O)O)C(=O)N[C@@H](C(=O)N1CCC[C@H]1C(=O)N[C@H](C(=O)N[C@@H](C)C(=O)N[C@@H](CC(C)C)C(=O)N[C@@H](CCCCNC(=O)CC[C@H](NC(=O)CCCCCCCCCCCCCCC(=O)O)C(=O)O)C(=O)N[C@@H](CCCCN)C(=O)N[C@H](C(=O)N[C@@H](CC(C)C)C(=O)N[C@@H](CC(C)C)C(=O)N[C@@H](CCC(=O)O)C(=O)N[C@@H](CCC(N)=O)C(=O)N[C@@H](CCC(=O)O)C(=O)N[C@@H](CCCCN)C(=O)N[C@@H](CCC(N)=O)C(=O)N[C@@H](CCCCN)C(=O)N[C@@H](CCCCN)C(=O)N[C@@H](CCC(N)=O)C(=O)N[C@@H](CCCNC(=N)N)C(=O)N[C@@H](CCC(=O)O)C(=O)N[C@@H](CCC(N)=O)C(=O)N[C@@H](C)C(=O)N[C@@H](CCC(=O)O)C(=O)N[C@H](C(=O)N[C@@H](CC(N)=O)C(=O)NC(C)(C)C(=O)N[C@@H](CCC(N)=O)C(=O)N[C@H](C(=O)N[C@@H](CC(C)C)C(=O)N[C@@H](C)C(=O)N[C@@H](CCC(N)=O)C(=O)N[C@H](C(N)=O)C(C)C)[C@@H](C)CC)[C@@H](C)O)[C@@H](C)CC)[C@@H](C)CC)C(C)C)C(C)C
# B4: SEQ ID NO 8 (peptide)
# peptide: Pentanoyl-VLSLD[dV]PIKLK([γGlu-C16 diacid])QILLKQERQKKQREQAEKNKQILEQV-NH2
# SMILES: CCCCC(=O)N[C@H](C(=O)N[C@@H](CC(C)C)C(=O)N[C@@H](CO)C(=O)N[C@@H](CC(C)C)C(=O)N[C@@H](CC(=O)O)C(=O)N[C@@H](C(=O)N1CCC[C@H]1C(=O)N[C@H](C(=O)N[C@@H](CCCCN)C(=O)N[C@@H](CC(C)C)C(=O)N[C@@H](CCCCNC(=O)CC[C@H](NC(=O)CCCCCCCCCCCCCCC(=O)O)C(=O)O)C(=O)N[C@@H](CCC(N)=O)C(=O)N[C@H](C(=O)N[C@@H](CC(C)C)C(=O)N[C@@H](CC(C)C)C(=O)N[C@@H](CCCCN)C(=O)N[C@@H](CCC(N)=O)C(=O)N[C@@H](CCC(=O)O)C(=O)N[C@@H](CCCNC(=N)N)C(=O)N[C@@H](CCC(N)=O)C(=O)N[C@@H](CCCCN)C(=O)N[C@@H](CCCCN)C(=O)N[C@@H](CCC(N)=O)C(=O)N[C@@H](CCCNC(=N)N)C(=O)N[C@@H](CCC(=O)O)C(=O)N[C@@H](CCC(N)=O)C(=O)N[C@@H](C)C(=O)N[C@@H](CCC(=O)O)C(=O)N[C@@H](CCCCN)C(=O)N[C@@H](CC(N)=O)C(=O)N[C@@H](CCCCN)C(=O)N[C@@H](CCC(N)=O)C(=O)N[C@H](C(=O)N[C@@H](CC(C)C)C(=O)N[C@@H](CCC(=O)O)C(=O)N[C@@H](CCC(N)=O)C(=O)N[C@H](C(N)=O)C(C)C)[C@@H](C)CC)[C@@H](C)CC)[C@@H](C)CC)C(C)C)C(C)C
# B5: SEQ ID NO 164 (peptide)
# peptide: Ac-IVLSLD[dV]PIKLK([γGlu-C16 diacid])AILLEQEKQKKQREQAETN[Aib]QILAQV-NH2
# SMILES: CC[C@H](C)[C@H](NC(C)=O)C(=O)N[C@H](C(=O)N[C@@H](CC(C)C)C(=O)N[C@@H](CO)C(=O)N[C@@H](CC(C)C)C(=O)N[C@@H](CC(=O)O)C(=O)N[C@@H](C(=O)N1CCC[C@H]1C(=O)N[C@H](C(=O)N[C@@H](CCCCN)C(=O)N[C@@H](CC(C)C)C(=O)N[C@@H](CCCCNC(=O)CC[C@H](NC(=O)CCCCCCCCCCCCCCC(=O)O)C(=O)O)C(=O)N[C@@H](C)C(=O)N[C@H](C(=O)N[C@@H](CC(C)C)C(=O)N[C@@H](CC(C)C)C(=O)N[C@@H](CCC(=O)O)C(=O)N[C@@H](CCC(N)=O)C(=O)N[C@@H](CCC(=O)O)C(=O)N[C@@H](CCCCN)C(=O)N[C@@H](CCC(N)=O)C(=O)N[C@@H](CCCCN)C(=O)N[C@@H](CCCCN)C(=O)N[C@@H](CCC(N)=O)C(=O)N[C@@H](CCCNC(=N)N)C(=O)N[C@@H](CCC(=O)O)C(=O)N[C@@H](CCC(N)=O)C(=O)N[C@@H](C)C(=O)N[C@@H](CCC(=O)O)C(=O)N[C@H](C(=O)N[C@@H](CC(N)=O)C(=O)NC(C)(C)C(=O)N[C@@H](CCC(N)=O)C(=O)N[C@H](C(=O)N[C@@H](CC(C)C)C(=O)N[C@@H](C)C(=O)N[C@@H](CCC(N)=O)C(=O)N[C@H](C(N)=O)C(C)C)[C@@H](C)CC)[C@@H](C)O)[C@@H](C)CC)[C@@H](C)CC)C(C)C)C(C)C
# B6: SEQ ID NO 165 (peptide)
# peptide: Ac-IVLSLD[dV]PIKLK([γGlu-C16 diacid])KILLEQEAQKKQREQAETN[Aib]QILAQV-NH2
# SMILES: CC[C@H](C)[C@H](NC(C)=O)C(=O)N[C@H](C(=O)N[C@@H](CC(C)C)C(=O)N[C@@H](CO)C(=O)N[C@@H](CC(C)C)C(=O)N[C@@H](CC(=O)O)C(=O)N[C@@H](C(=O)N1CCC[C@H]1C(=O)N[C@H](C(=O)N[C@@H](CCCCN)C(=O)N[C@@H](CC(C)C)C(=O)N[C@@H](CCCCNC(=O)CC[C@H](NC(=O)CCCCCCCCCCCCCCC(=O)O)C(=O)O)C(=O)N[C@@H](CCCCN)C(=O)N[C@H](C(=O)N[C@@H](CC(C)C)C(=O)N[C@@H](CC(C)C)C(=O)N[C@@H](CCC(=O)O)C(=O)N[C@@H](CCC(N)=O)C(=O)N[C@@H](CCC(=O)O)C(=O)N[C@@H](C)C(=O)N[C@@H](CCC(N)=O)C(=O)N[C@@H](CCCCN)C(=O)N[C@@H](CCCCN)C(=O)N[C@@H](CCC(N)=O)C(=O)N[C@@H](CCCNC(=N)N)C(=O)N[C@@H](CCC(=O)O)C(=O)N[C@@H](CCC(N)=O)C(=O)N[C@@H](C)C(=O)N[C@@H](CCC(=O)O)C(=O)N[C@H](C(=O)N[C@@H](CC(N)=O)C(=O)NC(C)(C)C(=O)N[C@@H](CCC(N)=O)C(=O)N[C@H](C(=O)N[C@@H](CC(C)C)C(=O)N[C@@H](C)C(=O)N[C@@H](CCC(N)=O)C(=O)N[C@H](C(N)=O)C(C)C)[C@@H](C)CC)[C@@H](C)O)[C@@H](C)CC)[C@@H](C)CC)C(C)C)C(C)C
# Molecular target: T1, CRF1R receptor (UniProt P34998 24-415, limits assumed)
# T1 sequence (looked up): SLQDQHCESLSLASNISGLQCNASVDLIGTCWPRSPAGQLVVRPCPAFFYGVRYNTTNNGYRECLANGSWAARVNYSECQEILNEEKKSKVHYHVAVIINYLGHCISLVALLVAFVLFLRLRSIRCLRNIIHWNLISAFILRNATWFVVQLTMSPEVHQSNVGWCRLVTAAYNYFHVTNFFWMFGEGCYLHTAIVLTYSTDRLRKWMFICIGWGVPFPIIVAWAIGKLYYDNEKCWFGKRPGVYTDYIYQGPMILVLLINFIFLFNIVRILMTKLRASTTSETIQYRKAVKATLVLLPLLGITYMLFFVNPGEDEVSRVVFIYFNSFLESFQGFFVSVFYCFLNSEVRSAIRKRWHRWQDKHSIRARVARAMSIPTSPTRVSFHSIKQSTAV
# Experiment: cell-based or functional assay
Binder,Emax (% I),EC50
B1,2%,–
B2,3%,–
Ac-IVLSLD[dV]PIKLK([γGlu-C16 diacid])KILLEQEKQK[Aib]QREQAETN[Aib]QILAQV-NH2 [SEQ ID NO 162],0%,–
B3,53%,190 nM
B4,50%,186 nM
B5,14%,–
B6,14%,–

# Molecular target: human corticotropin-releasing factor 2a (CRF2a receptor) (human), Q13324
# Sequence (Q13324 20-411): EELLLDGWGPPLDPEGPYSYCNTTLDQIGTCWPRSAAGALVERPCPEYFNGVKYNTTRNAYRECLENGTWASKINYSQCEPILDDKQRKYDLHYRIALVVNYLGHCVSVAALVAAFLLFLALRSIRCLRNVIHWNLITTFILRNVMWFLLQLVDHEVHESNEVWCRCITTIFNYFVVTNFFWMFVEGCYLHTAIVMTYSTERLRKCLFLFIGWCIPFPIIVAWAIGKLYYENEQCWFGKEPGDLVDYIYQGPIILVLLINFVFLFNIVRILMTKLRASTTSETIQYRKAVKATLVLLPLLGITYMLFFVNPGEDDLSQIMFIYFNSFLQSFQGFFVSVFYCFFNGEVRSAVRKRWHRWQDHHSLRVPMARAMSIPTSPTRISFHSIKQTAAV
# Experiment: cell-based or functional assay
row,Binder,EC50 [nM] (cAMP)
1,B1,2.08 nM
2,B2,0.32 nM
3,Ac-IVLSLD[dV]PIKLK([γGlu-C16 diacid])KILLEQEKQK[Aib]QREQAETN[Aib]QILAQV-NH2 [SEQ ID NO 162],0.49 nM
4,B3,0.3 nM
5,B4,0.14 nM
6,B5,2.43 nM
7,B6,0.64 nM
